In patent publication US20250387450A1 (AIKIUM, published 2025):
Changes are numbered by the printed parent chain.

T1: KAAG1 disordered region peptide, PGAAAAHLPRWPPPQLAASRREA (biotin label)
T1 construct: also called KAAG1 Peptide
T1 peptide: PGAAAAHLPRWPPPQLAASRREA

T2: Urotensin-2 receptor N-terminal peptide, MALTPESPSSFPGLAATGSSVPEPPGGPNATLNSSWASPTEPSSLEDLVATGTI (biotin label)
T2 construct: also called Urotensin IIR; GPCR2 (Urotensin II)
T2 peptide: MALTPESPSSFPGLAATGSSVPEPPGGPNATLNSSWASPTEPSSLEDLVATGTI

T3: TNFRSF13B disordered region peptide, LPPELRRQRSGEVENNSDNSGRYQ (biotin label)
T3 construct: also called TNFRSF13B Peptide
T3 peptide: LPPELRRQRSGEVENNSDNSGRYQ

T4: CD74 disordered region peptide (CLIP), PPKPVSKMRMATPLLMQALPMGALP (biotin label)
T4 construct: also called CD74 Peptide
T4 peptide: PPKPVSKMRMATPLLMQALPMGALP

T5: CYSLTR2 N-terminal disordered region peptide, MERKFMSLQPSISVSEMEPNGTFSNNNSRNCTIENFKREFFP (biotin label)
T5 construct: also called CysLT2; CysLT2r
T5 peptide: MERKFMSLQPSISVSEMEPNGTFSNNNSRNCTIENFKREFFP

T6: GMERKFMSLQPSISVSEMEPNGTFSNNNSRNCTIENFKREFFP (biotinylated, position not given)
T6 construct: also called CYSLTR2 (longer peptide of the disordered region)
T6 peptide: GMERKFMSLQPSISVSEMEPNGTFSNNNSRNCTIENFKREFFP

T7: KCNA6 short linear epitope peptide, QQQEQQPASGGGGQNGQQAMS (biotin label)
T7 construct: also called KCNA6 Peptide
T7 peptide: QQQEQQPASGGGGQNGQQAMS

T8: CYSLTR2 short linear epitope peptide, SISVSEMEPNGTFSNNNSRNC (N-terminal biotin)
T8 peptide: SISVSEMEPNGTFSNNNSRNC

T9: CD40LG short linear epitope peptide, NKEETKKENSFEMQKGDQNPQIAAH (biotin label)
T9 construct: also called CD40LG Peptide
T9 peptide: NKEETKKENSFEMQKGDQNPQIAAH

B1: engineered scaffold protein S068 (designed binder)
chain: GDTRPRFLWQLKFECHFFNGTERVRLLERCIYNQEESVRFDSDVGEYRAVTELGRPDAEYWNSQKDLLEQRRAAVDTYCRHNYGVGESFTVQRRVEPKVTVYPSKTQPLQHHNLLVCSVSGFYPGSIEVRWFRNGQEEKAGVVSTGLIQNGDWTFQTLVMLETVPRSGEVYTCQVEHPSVTSPLTVEWRASGGGGSGGGGSGGGGIKEEHVIIQAEFYLNPDQSGEFMFDFDGDEIFHVDMAKKETVWRLEEFGRFASFEAQGALANIAVDKANLEIMTKRSNYTPITNVPPEVTVLTNSPVELREPNVLICFIDKFTPPVVNVTWLRNGKPVTTGVSETVFLPREDHLFRKFHYLPFLPSTEDVYDCRVEHWGLDEPLLKHWEFDAPSGGSHHHHHHLE
B2: engineered scaffold protein S078 (designed binder)
chain: GDTRPRFLWQLKFECHFFNGTERVRLLERCIYNQEESVRFDSDVGEYRAVTELGRPDAEYWNSQKDLLEQRRAAVDTYCRHNYGVGESFTVQRRSGGGIKEEHVIIQAEFYLNPDQSGEFMFDFDGDEIFHVDMAKKETVWRLEEFGRFASFEAQGALANIAVDKANLEIMTKRSNYTGGSHHHHHHLE
B3: engineered scaffold protein S134 (designed binder)
chain: MVKYHHHHHHGGSENLYFQGMGDTRPRFLWQPKRECHFFNGTERVRFLDRYFYNQEESVRFDSDVGEFRAVTELGRPDAEYWNSQKDILEQARAAVDTYCRHNYGVVESFTVQRRVIKEEHVIIQAEFYLNPDQSGEFMFDFDGDEIFHVDMAKKETVWRLEEFGRFASFEAQGALANIAVDKANLEIMTKRSNYTPITN
B4: engineered scaffold protein S077 (designed binder)
chain: KPVSKMRMATPLLMQALPMASGGGGSGGGGDTRPRFLWQLKFECHFFNGTERVRLLERCIYNQEESVRFDSDVGEYRAVTELGRPDAEYWNSQKDLLEQRRAAVDTYCRHNYGVGESFTVQRRSGGGIKEEHVIIQAEFYLNPDQSGEFMFDFDGDEIFHVDMAKKETVWRLEEFGRFASFEAQGALANIAVDKANLEIMTKRSNYTGGSHHHHHHLE
B5: engineered scaffold protein S143 (designed binder)
chain: MGDTRPRFLWQLKFECHFFNGTERVRLLERCIYNQEESVRFDSDVGEYRAVTELGRPDAEYWNSQKDLLEQRRAAVDTYCRHNYGVGESFTVQRRVIKEEHVIIQAEFYLNPDQSGEFMFDFDGDEIFHVDMAKKETVWRLEEFGRFASFEAQGALANIAVDKANLEIMTKRSNYTPTINGGSHHHHHH
B6: engineered scaffold protein S098 (designed binder)
chain: PENYLFQGRQECNGTQFLERYIYNREEFVRFDEFRAVGRPDEEYWNSQKDILEEERAVPDRMCRHNYELGGPMTLQRRVQPRVNIKADHVSTYAAFVQRPFMFEFDEDEMFYVDLHLEEFGQAFSFEAQGGLANIAILNNNLNTRSNHTQATNDPPHHHHHHLE
B7: engineered scaffold protein S058 (designed binder)
chain: GSHSMRYNYTSVSRPGRGEPRFISEGYVDDTQFVRFDSDAASPREEPRAPWIEQEGPEYWDRNTQIYKAQAQTDRESLRNLRGYYNQSEAGSHTLQSMYGCDVGPDGRLLRGHDQYYYDGKDYISLNEDLRSWTAADTAAQITQRKWEAAREAEQRRAYLEGECVEWLRRYLENGKDKLERADGGSHHHHHHLE
B8: engineered scaffold protein S065 (designed binder)
chain: B7 chain with N8F, E25V, Y59A, Y117A, Y123S, S125A, K146Y, W167H, Y171V
B9: engineered scaffold protein S193 (designed binder)
chain: MGSKARMATGALAQAGGSGGSMIKEEHVINQAEYYLNPDQSGEFKFDFDGDEIFHVDMAKKETVWRLEEFGRFASFEAQGALAHIAVDKANLEIMTKRSNYTPMGDTRPRFLWQLKYECHFFNGTERVRLNERCIYNQEESVRFDSDVGEYRAVTELGRPDAEQWNSQKDHLEQRRAAVDTKCRHNYGVGESFTVQGGSHHHHHH
B10: S189 (designed binder)
single chain: MGIKEEHVINQAEYCLNPDQSGEFKFDFDGDEIFHVDMAKKETVWRLEEFGRFASFEAQGALAHIAVDCANLEIMTKRSNYTPMGDTRPRFLWQLKYECHFFNGTERVRLNERCIYNQEESVRFDSDVGEYRAVTELGRPDAEQWNSQKDHLEQRRAAVDTKCRHNYGVGESFTVQGGSHHHHHH
notes: also called engineered scaffold protein S189
B11: S180 (designed binder)
single chain: MKEEHVIIQAEFYLNPDQSGEFMFDFDGDEIFHVDMAKKETVWRLEEFGRFASFEAQGALANIAVDKANLEIMTKRSNYTPITNTRPRFLWQPKRECHFFNGTERVRFLDRYFYNQEESVRFDSDVGEFRAVTELGRPDAEYWNSQKDILEQARAAVDTYCRHNYGVVESFTVQRRVQGGSHHHHHHLE
notes: also called engineered scaffold protein S180

Molecular target: T1, KAAG1 disordered region peptide, …
Assay: modified sandwich ELISA, grade by the table's key
Protocol: (§1) Binder proteins were coated on the surface of a high binding capacity 96 well plate by incubating 100 μL of protein at 5 μg/mL in a coating solution (10 mM Tris pH 8.8, 50 mM NaCl), overnight at 4 C. The next morning, the coating solution was aspirated out and wells were washed once with 300 μL ELISA wash buffer (1×PBS, 0.05% Tween-20) and solution was aspirated out. The wells were blocked with 200 μL of a blocking buffer (1×PBS, 0.05% Tween-20, 3% BSA) at room temperature for 1 hour. After one hour, the blocking solution was aspirated out and 100 μL of biotinylated polypeptide in a binding buffer (1×PBS, 0.05% Tween-20, 0.5% BSA) at various concentrations was added to the appropriate well and incubated for 20 minutes. Peptide solution was aspirated out after 20 minutes and wells were washed 5 times with 300 μL of ELISA wash buffer. To detect the biotinylated peptide, 100 μL of streptavidin-HRP (50 ng/ml) was added to each well and incubated for 1 hour. The wells were subsequently washed 5 times with 300 μL of ELISA wash buffer. 100 μL of QuantaBlu Fluorogenic Peroxidase substrate solution was added to each well, incubated for 30 minutes and reaction stopped by adding 100 μL of stop solution. Fluorescent signal from each well was measured using a Biotek Cytation5 plate reader by exciting the fluorophore at […] and measuring emission at 420 nm. Fluorescent signals were plotted as a function of polypeptide concentration.

Binder | binding result
B1 | no binding (tested: <5000 (fluorescence, key))
B2 | no binding (tested: <5000 (fluorescence, key))
B3 | no binding (tested: <5000 (fluorescence, key))
B4 | no binding (tested: <5000 (fluorescence, key))
B5 | no binding (tested: <5000 (fluorescence, key))
B6 | no binding (tested: <5000 (fluorescence, key))

Molecular target: T2, Urotensin-2 receptor N-terminal …
Assay: modified sandwich ELISA, grade by the table's key
Protocol: as §1

Binder | binding result
B1 | no binding (tested: <5000 (fluorescence, key))
B2 | no binding (tested: <5000 (fluorescence, key))
B7 | no binding (tested: <5000 (fluorescence, key))
B8 | no binding (tested: <5000 (fluorescence, key))
B4 | no binding (tested: <5000 (fluorescence, key))
B6 | no binding (tested: <5000 (fluorescence, key))

Molecular target: T3, TNFRSF13B disordered region peptide, …
Assay: modified sandwich ELISA, grade by the table's key
Protocol: as §1

Binder | binding result
B1 | no binding (tested: <5000 (fluorescence, key))
B2 | no binding (tested: <5000 (fluorescence, key))
B8 | no binding (tested: <5000 (fluorescence, key))
B4 | no binding (tested: <5000 (fluorescence, key))
B6 | no binding (tested: <5000 (fluorescence, key))

Molecular target: T4, CD74 disordered region peptide (CLIP), …
Assay: modified sandwich ELISA, fluorescence grade by the table's key
Protocol: as §1

fluorescent signal | Binder
> 400000 fluorescentsignal | B1
> 400000 fluorescentsignal | B2
100000 to 250000 fluorescentsignal | B3
> 400000 fluorescentsignal | B7
> 400000 fluorescentsignal | B8
> 400000 fluorescentsignal | B4
> 400000 fluorescentsignal | B5
> 400000 fluorescentsignal | B6

Molecular target: T5, CYSLTR2 N-terminal disordered region …
Assay: as above
Protocol: as §1

fluorescent signal | Binder
50000 to 100000 fluorescentsignal | B2
100000 to 250000 fluorescentsignal | B4
100000 to 250000 fluorescentsignal | B6

Molecular target: T6, GMERKFMSLQPSISVSEMEPNGTFSNNNSRNCTIENFKRE …
Assay: ELISA: scaffold coated on plate, biotinylated peptide titrated, streptavidin-HRP fluorescence
Protocol: as §1

binding result | Binder
binds | B9
binds | B10
binds | B11

Molecular target: T7, KCNA6 short linear epitope peptide, …
Assay: as above
Protocol: as §1

binding result | Binder
no binding (tested: 10000 nM) | B9

Molecular target: T1, KAAG1 disordered region peptide, …
Assay: as above
Protocol: as §1

binding result | Binder
no binding (tested: 10000 nM) | B9
no binding (tested: 10000 nM) | B8

Molecular target: T8, CYSLTR2 short linear epitope peptide, …
Assay: as above
Protocol: as §1

binding result | Binder
binds | B9
binds | B10
binds | B11

Molecular target: T3, TNFRSF13B disordered region peptide, …
Assay: as above
Protocol: as §1

binding result | Binder
no binding (tested: 10000 nM) | B9

Molecular target: T9, CD40LG short linear epitope peptide, …
Assay: as above
Protocol: as §1

binding result | Binder
no binding (tested: 10000 nM) | B9
